The test system of one series is refolded SBD641. The series is described as follows: Fluorescence titration of dansyl-NR peptide binding, refolded protein. Also on record: species or system human. As to conditions: refolded vs native SBD641, fluorescence titration. How it is done: The interaction between the different Hsp70 variants and the NR peptide was studied in 50 mM Tris buffer at pH 7.4, with 150 mM KCl, and 5 mM MgCl2 using fluorescence spectroscopy by titrating different concentrations of chaperone into a solution containing 2 µM dansyl-NR peptide (N-terminally labeled; Genemed Synthesis Inc., San Antonio, TX, USA) after incubating the mixtures for 1 h at 25°C. The concentration of dansyl-NR peptide was calculated using an extinction coefficient at 327 nm of 4300 M^-1.cm^-1 [39]. The fluorescence emission spectrum of each sample was recorded from 400 to 630 nm after excitation at 330 nm, and the data reported correspond to the average intensity at the maximum emission wavelength of two different samples for which ten spectra were recorded. The increase in fluorescence signal was plotted as a function of chaperone concentration (Figure S2), and analyzed assuming single-site binding using the following equation:
ΔF=ΔFmaxΘL=ΔFmax/2LT[(PT+LT+Kd)−(PT+LT+Kd)^2−4PTLT] (1)
where ΘL is the fraction of bound ligand, ΔF is the increase in fluorescence intensity observed at a given concentration of Hsp70 variant, ΔF max is the increase in fluorescence at saturation, L T and P T are the total ligand and protein concentration respectively, and K d is the apparent dissociation constant of the complex. […]

The nature of series [1]: Secondary structure content from far-UV CD. The class given is physicochemical, human. As to conditions: K2D software; 20 µM protein, 7 mM Tris pH 7.4, 170 mM KCl, 5 mM MgCl2; 25 °C. How it is done: Far-UV CD spectra for all protein variants were recorded using a Jasco J-810 spectropolarimeter equipped with a Peltier holder, using a 0.1 cm path length cuvette. Typically, samples contained 20 µM protein in 7 mM Tris buffer at pH 7.4, containing 170 mM KCl and 5 mM MgCl2. The far-UV CD spectra of all the variants in their native, thermally denatured and refolded states were recorded from 198 to 250 nm, and the spectrum of the buffer was systematically subtracted from the spectra of all protein samples. The secondary structure content was estimated from the far-UV CD spectrum for each protein variant using K2D software.

As to “SBD641: truncated human Hsp70 (384-641), full-length SBD with interdomain linker”, the “Affinity of refolded SBD641 for substrate” value in the series on refolded SBD641 was “same affinity as the native protein”. In addition, in series [1], the “Random-coil content estimated from far-UV CD” value is reported as 49%, the “α-helix content estimated from far-UV CD” value is on record as 33% and the “β-sheet content estimated from far-UV CD” value is 18%.

Source of the values: paper PMC3696110, “Hsp70 Oligomerization Is Mediated by an Interaction between the Interdomain Linker and the Substrate-Binding Domain” (PLoS ONE, 2013).
